Test results as given in patent US20250034266A1 (ZAI LAB SHANGHAI, published 2025).
Where a chain is given by its changes, count along the chain named. In names and notes the source's numbering stands. Read-outs that look alike come from different tables or passages of the source. One block for each binder: values may come before it.

Experiments:
[1] = biological target: T1, human CCR8 (human, UniProt P51685 1-355); assay: cell-based or functional assay
T1 sequence (P51685 whole entry): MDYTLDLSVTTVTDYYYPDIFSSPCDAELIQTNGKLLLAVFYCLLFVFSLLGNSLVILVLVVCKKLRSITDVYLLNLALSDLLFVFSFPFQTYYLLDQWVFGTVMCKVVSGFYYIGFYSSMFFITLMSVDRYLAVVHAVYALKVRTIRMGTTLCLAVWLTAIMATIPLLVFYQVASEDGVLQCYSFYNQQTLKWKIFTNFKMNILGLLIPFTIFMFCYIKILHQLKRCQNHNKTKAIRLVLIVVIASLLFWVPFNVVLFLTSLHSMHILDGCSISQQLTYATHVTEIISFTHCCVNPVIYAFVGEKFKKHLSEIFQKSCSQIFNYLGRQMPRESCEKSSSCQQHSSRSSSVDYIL

[2] = biological target: T1, human CCR8; assay: cell-based or functional assay; remark: listed apart in the source
[3] = biological target: human CCR8 tagged with ProLink (PK) (human, UniProt P51685 1-355); assay: cell-based or functional assay
human CCR8 tagged with ProLink (PK), sequence (P51685 whole entry): as above

[4] = biological target: T1, human CCR8; assay: cell-based or functional assay; remark: listed apart in the source
[5] = biological target: T1, human CCR8; assay: flow cytometry on TALL-1 cells (endogenous CCR8)
Procedure: Briefly, a total of 5×10⁴ cells for each well were seeded in 96-well plates and washed with FACS buffer (DPBS containing 1.5% FBS) for once. Antibodies were prepared with 3-fold serial dilution ranging from 100 nM to 0.00508 nM in FACS buffer. Cells were incubated with 50 μL of diluted antibodies at 4° C. for 40 minutes. After primary antibody incubation, cells were washed twice by FACS buffer. Then, cells were stained by Alexa Flu647-labeled anti-human IgG Fc secondary antibody (Jackson ImmunoResearch, #109606170) at 1:500 dilution in FACS buffer for 40 minutes at 4° C. After 2 times wash with FACS buffer, flow cytometry (BD FACS Celesta) was performed to measure the binding affinities of antibodies.

[6] = biological target: T2, human CCR8 (human, UniProt P51685 1-355); assay: cell-based or functional assay; remark: listed apart in the source
T2 sequence (P51685 whole entry): as above

[7] = biological target: T2, human CCR8; assay: cell-based or functional assay; remark: listed apart in the source
[8] = biological target: T1, human CCR8; assay: cell-based or functional assay; remark: listed apart in the source
[9] = biological target: T2, human CCR8; assay: cell-based or functional assay; remark: listed apart in the source
[10] = biological target: T2, human CCR8; assay: FACS on CHO-K1-human CCR8 cells
[11] = biological target: T3, cynomolgus CCR8 (cynomolgus, UniProt G7NYJ2 1-355); assay: FACS on HEK293-cynomolgus CCR8 cells
T3 construct: whole, on cells
T3 sequence (G7NYJ2 entry or part of it): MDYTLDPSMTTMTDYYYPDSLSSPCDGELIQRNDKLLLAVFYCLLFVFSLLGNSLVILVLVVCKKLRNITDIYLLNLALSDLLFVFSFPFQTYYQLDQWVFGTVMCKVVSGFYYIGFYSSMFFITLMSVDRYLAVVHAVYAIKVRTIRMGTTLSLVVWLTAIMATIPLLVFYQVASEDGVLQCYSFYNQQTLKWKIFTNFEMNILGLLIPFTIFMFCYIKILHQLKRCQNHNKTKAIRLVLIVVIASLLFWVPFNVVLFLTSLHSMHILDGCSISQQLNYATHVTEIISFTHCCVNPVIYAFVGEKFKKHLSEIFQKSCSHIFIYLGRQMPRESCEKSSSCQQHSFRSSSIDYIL

[12] = biological target: T2, human CCR8; assay: FACS on HuT78 cells (endogenous human CCR8)
Procedure: HuT78 cells expressing endogenous human CCR8 were used for determining binding affinities of selected affinity matured anti-CCR8 antibodies. Briefly, a total of […] cells for each well were seeded in 96-well plates and washed with FACS buffer (DPBS containing […]) for once. […] Cells were incubated with 50 μL of diluted antibodies at 4° C. for 1 hour. After primary antibody incubation, cells were washed for 3 times by FACS buffer. Then, cells were stained by Alexa Fbu647 labeled anti-human IgG secondary antibody (Jackson ImmunoResearch, #109606170) at 1:600 dilution in FACS buffer for 0.5 hour at 4° C. After 3 times washed, flow cytometry (Sartourius, iQue3) was performed to measure the binding affinities of antibodies. […]

[13] = biological target: T2, human CCR8; assay: FACS, competition with CCL1 on CHO-K1-human CCR8 cells
[14] = biological target: T2, human CCR8; assay: FACS of purified scFv on CHO-K1-human CCR8 cells

B1: Hu149-11G1m (antibody, human IgG1)
heavy: EVQLVESGGGLVQPGGSLKLSCAASGFTFNTYAMNWVRQASGKGLEWVGRIRSKSNFYATAYAASVKGRFTISRDDSKNTAYLQMNSLKTEDTAVYYCTRGREYGSSYAMDYWGQGTLVTVSSASTKGPSVFPLAPSSKSTSGGTAALGCLVKDYFPEPVTVSWNSGALTSGVHTFPAVLQSSGLYSLSSVVTVPSSSLGTQTYICNVNHKPSNTKVDKKVEPKSCDKTHTCPPCPAPELVGGPSVFLLPPKPKDTLMISRTPEVTCVVVDVSHEDPEVKFNWYVDGVEVHNAKTKPPEEQYNSTLRVVSVLTVLHQDWLNGKEYKCKVSNKALPAPIEKTISKAKGQPREPQVYTLPPSRDELTKNQVSLTCLVKGFYPSDIAVEWESNGQPENNYKTTPLVLDSDGSFFLYSKLTVDKSRWQQGNVFSCSVMHEALHNHYTQKSLSLSPGK
VL: DIVMTQSPLSLPVTPGEPASISCRSSKSLLHSNANTYLYWFLQKPGQSPQLLIYRMSNLASGVPDRFSGSGSGTDFTLKISRVEAEDVGVYYCMQHLEYPLTFGGGTKVELK
notes: also called Hu149-11G1m (ADCC enhanced variant with L235V/F243L/R292P/Y300L/P396L Fc mutations)
EC50, ADCC reporter, F variant CD16a/NFAT-Jurkat, target CHO-K1-human CCR8 cells [1]: 5.6 pM
EC50, ADCC reporter, F variant CD16a/NFAT-Jurkat, target HuT78 cells [1]: 16.4 pM
EC50, ADCC reporter, V variant CD16a/NFAT-Jurkat, target CHO-K1-human CCR8 cells [1]: 7.25 pM
EC50, ADCC reporter, V variant CD16a/NFAT-Jurkat, target HuT78 cells [1]: 20.3 pM
Max (RLU), ADCC reporter, F variant CD16a/NFAT-Jurkat, target CHO-K1-human CCR8 cells [1]: 8.28e+06 RLU
Max (RLU), ADCC reporter, F variant CD16a/NFAT-Jurkat, target HuT78 cells [1]: 1.59e+07 RLU
Max (RLU), ADCC reporter, V variant CD16a/NFAT-Jurkat, target CHO-K1-human CCR8 cells [1]: 3.93e+06 RLU
Max (RLU), ADCC reporter, V variant CD16a/NFAT-Jurkat, target HuT78 cells [1]: 8.7e+06 RLU
EC50, ADCC with human PBMCs, target CHO-K1-human CCR8 cells [2]: 0.085 pM
Max specific lysis (%), ADCC with human PBMCs, target CHO-K1-human CCR8 cells [2]: 46.6%
IC50, inhibition of CCL1 induced β-Arrestin recruitment, CHO-K1-human CCR8 β-Arrestin cells [3]: 2090 pM
EC50, ADCC with human PBMCs (LDH release), target TALL-1 cells [4]: 0.682 pM
EC50 [5]: 328 pM

B2: Hu149-9 mIgG2a (antibody, V domains shown)
VH: EVQLVESGGGLVQPGGSLKLSCAASGFTFNTYAMNWVRQASGKGLEWVGRIRSKSNFYATAYAASVKGRFTISRDDSKNTAYLQMNSLKTEDTAVYYCTRGRDYGSSYAMDYWGQGTLVTVSS
VL: B1 VL
IC50, inhibition of CCL1 induced β-Arrestin recruitment [6]: 8640 pM
IC50, blocking of CCL1 induced cell migration [7]: 1920 pM

B5: Hu149-12G1 (antibody, human IgG1)
heavy: not shown
VL: B1 VL
EC50, ADCC reporter, F variant CD16a/NFAT-Jurkat, target CHO-K1-human CCR8 cells [1]: 59.8 pM
EC50, ADCC reporter, F variant CD16a/NFAT-Jurkat, target HuT78 cells [1]: 744 pM
EC50, ADCC reporter, V variant CD16a/NFAT-Jurkat, target CHO-K1-human CCR8 cells [1]: 43 pM
EC50, ADCC reporter, V variant CD16a/NFAT-Jurkat, target HuT78 cells [1]: 495 pM
Max (RLU), ADCC reporter, F variant CD16a/NFAT-Jurkat, target CHO-K1-human CCR8 cells [1]: 4.96e+06 RLU
Max (RLU), ADCC reporter, F variant CD16a/NFAT-Jurkat, target HuT78 cells [1]: 5.28e+06 RLU
Max (RLU), ADCC reporter, V variant CD16a/NFAT-Jurkat, target CHO-K1-human CCR8 cells [1]: 2.28e+06 RLU
Max (RLU), ADCC reporter, V variant CD16a/NFAT-Jurkat, target HuT78 cells [1]: 4.19e+06 RLU
EC50, ADCC with human PBMCs, target CHO-K1-human CCR8 cells [2]: 11.3 pM
Max specific lysis (%), ADCC with human PBMCs, target CHO-K1-human CCR8 cells [2]: 36.4%

B7: Hu149-18 (antibody, human IgG1, V domains shown)
VH: B2 VH
VL: B1 VL with E98R
notes: human IgG1
IC50, inhibition of CCL1 induced β-Arrestin recruitment [9]: 610 pM
Max Inhibition (%), CCL1 induced β-Arrestin recruitment [9]: 88.8%
EC50 [10]: 72.2 pM
Max MFI [10]: 694000 MFI
EC50 [11]: 82.6 pM
Max MFI [11]: 4.15e+06 MFI
Max MFI [12]: 351000 MFI
IC50 [13]: 61.4 pM
Max Inhibition (%) [13]: 101%

B9: VL-PH5-P5D9 (scFv)
scFv: EVQLVESGGGLVQPGGSLKLSCAASGFTFNTYAMNWVRQASGKGLEWVGRIRSKSNFYATAYAASVKGRFTISRDDSKNTAYLQMNSLKTEDTAVYYCTRGRDYGSSYAMDYWGQGTLVTVSSGGGGSGGGGSGGGGSDIVMTQSPLSLPVTPGEPASISCRSSKSLLHSNANTYLYWFLQKPGQSPQLLIYRMSNLASGVPDRFSGSGSGTDFTLKISRVEAEDVGVYYCMQHLSYPLTFGGGTKVELK
GeoMean AF647 (RL1-H) of CHO-K1-human CCR8 / GeoMean AF647 (RL1-H) in H12(NC) [14]: 3.2

B10: Hu348-4 mIgG2a (antibody, V domains shown)
VH: EVQLVESGGGLVQPGGSLKLSCATSGFSFSNYRMHWLRQASGKGLEWVGVITVKSDNYGANYAASVKGRFTISRDDSKSSVYLQMNSLKTEDTAVYYCSSLGRVAYWGQGTLVTVSS
VL: DIQMTQSPSSVSASVGDRVTITCKASQNVDTNVVWYQQKPGQSPKALIYSASSRYSGVPSRFSGSGSGTDFTLTISSLQPEDFATYYCQQHNSFPLTFGQGTKLEIK
IC50, inhibition of CCL1 induced β-Arrestin recruitment [6]: 860000 pM

B11: TPP21360 (antibody, V domains shown)
VH: EVQLLESGGGLVQPGGSLRLSCAASGFTFSSYGMHWVRQAPGKGLEWVSAINWNGGSTGYADSVKGRFTISRDNSKNTLYLQMNSLRAEDTAVYYCARGHHSGYDGRFFDYWGQGTLVTVSS
VL: QSVLTQPPSVSGAPGQRVTISCTGSSSNIGAGYNVHWYQQLPGTAPKLLIYTNNRRPSGVPDRFSGSKSGTSASLAISGLRSEDEADYYCAAWDASLSGWVFGGGTKLTVLG
EC50, ADCC with human PBMCs (LDH release), target TALL-1 cells [4]: 553 pM
EC50 [5]: 461 pM

Results, then the binder that gave them:

IC50, blocking of CCL1 induced cell migration [7]: 2950 pM
B3: Hu149-4-mIgG2a (antibody, V domains shown)
VH: B2 VH with A61Y
VL: B1 VL

EC50, ADCC reporter, F variant CD16a/NFAT-Jurkat, target CHO-K1-human CCR8 cells [1]: 4.05 pM
EC50, ADCC reporter, F variant CD16a/NFAT-Jurkat, target HuT78 cells [1]: 8.69 pM
EC50, ADCC reporter, V variant CD16a/NFAT-Jurkat, target CHO-K1-human CCR8 cells [1]: 5.6 pM
EC50, ADCC reporter, V variant CD16a/NFAT-Jurkat, target HuT78 cells [1]: 11.4 pM
Max (RLU), ADCC reporter, F variant CD16a/NFAT-Jurkat, target CHO-K1-human CCR8 cells [1]: 8.18e+06 RLU
Max (RLU), ADCC reporter, F variant CD16a/NFAT-Jurkat, target HuT78 cells [1]: 1.48e+07 RLU
Max (RLU), ADCC reporter, V variant CD16a/NFAT-Jurkat, target CHO-K1-human CCR8 cells [1]: 3.94e+06 RLU
Max (RLU), ADCC reporter, V variant CD16a/NFAT-Jurkat, target HuT78 cells [1]: 8.64e+06 RLU
EC50, ADCC with human PBMCs, target CHO-K1-human CCR8 cells [2]: 0.136 pM
Max specific lysis (%), ADCC with human PBMCs, target CHO-K1-human CCR8 cells [2]: 44.2%
IC50, inhibition of CCL1 induced β-Arrestin recruitment, CHO-K1-human CCR8 β-Arrestin cells [3]: 1160 pM
B4: Hu149-12G1m (antibody, human IgG1)
heavy: B1 heavy with R102K
VL: B1 VL

EC50, ADCC reporter, F variant CD16a/NFAT-Jurkat, target CHO-K1-human CCR8 cells [1]: 58.6 pM
EC50, ADCC reporter, F variant CD16a/NFAT-Jurkat, target HuT78 cells [1]: 402 pM
EC50, ADCC reporter, V variant CD16a/NFAT-Jurkat, target CHO-K1-human CCR8 cells [1]: 39.1 pM
EC50, ADCC reporter, V variant CD16a/NFAT-Jurkat, target HuT78 cells [1]: 586 pM
Max (RLU), ADCC reporter, F variant CD16a/NFAT-Jurkat, target CHO-K1-human CCR8 cells [1]: 4.71e+06 RLU
Max (RLU), ADCC reporter, F variant CD16a/NFAT-Jurkat, target HuT78 cells [1]: 4.07e+06 RLU
Max (RLU), ADCC reporter, V variant CD16a/NFAT-Jurkat, target CHO-K1-human CCR8 cells [1]: 2.03e+06 RLU
Max (RLU), ADCC reporter, V variant CD16a/NFAT-Jurkat, target HuT78 cells [1]: 3.89e+06 RLU
EC50, ADCC with human PBMCs, target CHO-K1-human CCR8 cells [2]: 13.9 pM
Max specific lysis (%), ADCC with human PBMCs, target CHO-K1-human CCR8 cells [2]: 52.5%
EC50, ADCC reporter, 158F CD16a/NFAT-Jurkat, target TALL-1 cells [8]: 120 pM
EC50, ADCC reporter, 158V CD16a/NFAT-Jurkat, target TALL-1 cells [8]: 65.8 pM
EC50, ADCC with human PBMCs (LDH release), target TALL-1 cells [4]: 12.1 pM
EC50 [5]: 315 pM
B6: Hu149-11G1 (antibody, human IgG1)
heavy: not shown
VL: B1 VL
notes: also called Hu149-11G1 (wild type variant)

GeoMean AF647 (RL1-H) of CHO-K1-human CCR8 / GeoMean AF647 (RL1-H) in H12(NC) [14]: 2.9
B8: VL-PH5-P3E4 (scFv)
scFv: B9 scFv with S236R
